In the DeepSol protein solubility set:

Assay: soluble on expression in E. coli; label from the status in PepcDB or PDB records

Sequence | soluble on expression in E. coli
MAHHHHHHMHSVVPMSSYIHPTQVSIGAAPRMAVQEMHPDAKRKGRRVVATMELKPGNAIFAAPPDIAVLYSPFARHICARCLVADVRACAEPLKAHHHHHQHPHQQPHATLSRSPVGASSSPSSLSSSTAAPAAAPVRPYCCPNCDQFVLCAPCVAQLLLDSGVDVTSAAGTDAVQTTAPLLQRRGEGKRGVSVVDERLHLHPLLRAHAISCAWYTSLPASIRAPGNDTDFLRFCLDYGARAYLGDTAMMRALATLDTNASVQSKESMQLCEVFARDRVVATFGKEPKAVTATTLATAASAKHMGIDPLSNQAGTHASGGIHRGGNSDGVRCRGSAAVSPFPPRYPISWTDLRDTLLRTRCNSIGFPYNTEETTGWSLHQTVCMLNHSCVPNAAVIMLYDSADAMAAAAALAARTGASHTAPPKERTQEAARRKASERIAAFRAVATSSESPYSTSYSPSLAGWIGIEATRPIAAGEEITISYVDLGSLGDDLQTRSRHLLEQYRFLCTCELCMRQRSLKR | not soluble
MAHHHHHHMHVQARYQRITEAYAVLSDPEKRRAYDAKHGVNFQSRLARLQTVIGHHNTMATQRSTTSCKTACLASTSSPTTDEHDAQHLHAASHKDSAERTVGDDDDEDYDPNDVLAPPRGAPHQGRSSDFYSDDSRDAHGEGDYIARLFSLHLRVGAEAAPKTRNGVPVVQYQAITLTRAYSPPESPYARTWGLVFKKNELVDLDGENLEELARITGLAAVPFPSVVQQINYTMAGTDDRLAAPAISALRIRVHTGLSGEPCHGPNGVDQY | not soluble
MAHHHHHHMIDDVRICHLVLQDVKERLPLYESRLEAVNNSHVVISCWNESVKAFVPVPVAEDVEFTSDVLHEVVSLVDGLRQLGCTDFFVVFVDSGGTLSFYHVDTLRLLQSGRSGSS | not soluble
MAHHHHHHMIFRFYSKLYKHQCAYKNILYNKYHIEKKLEYFYDSIKKNNYSTLYGIKKNDLLNIKKNSGEFLLLSDIFMIKQNNLFLLNNVRRNFYYNTNIIKGIYNDSLFYYDKKYFSGRSGGLKRKKKRKEERIVNTGSAKRLEFFYPKKKRRQRIGLIQNSRKNIVYDNIFKRFLVYHYKQGIQVFRSFSCKKKRNFEAARNKAIILSNQYNKRFNKHNMNDQQRKDTKNIPLNVMDSNLIAKYNNELIKQIKIIPDKNKSGYRGVFYEPSYHAYICIYNEAGVRKFQIFKIQNNDYLEAYHLALMCRRYKLFKNYQFVFQRNRIRSGRIPLK | not soluble
MAHHHHHHMIKRYLKIYPSIYFTKHVYTAPEIDGSKDLLKKDYVFNQYVNKKEIFLNNKLKKGNCENEIKRIYYFKLWNAMVEHNFTLFENIIQQYLNEGYKYDEVIYSIMTHAYILNHKKKNENAYLVIEEMKRAFMHPIIIKINERMINCFLELELIFCEPSKSLWINVCRFIWESSIKLNRERRRKLKEKLNLLEPNQVLKLTKEDVKKLVKKEYEETLLSMMDTLSLDGEDPYDHILIDRKENYMKIENQKDGNFFPSNGNELTCLNNNHIYNDHINYLKGNIENDTSENVNSFMFSILNEGKNKTTEQEINYQDDYNLNNNDYMTKITNINSDNNIMMNMENEHMYETDEKDEHYESFDDAEDFDIQLLKKYYNLK | not soluble
MAHHHHHHMIRINENSKMSSNLSNENEVTYEKNNNIKNKLEEKYKNFLKLKNMNSHMGASQNMNVNNNYTMNELEEFEKINNNYNNNNNNINNNINNYYDYMNIKVSQSVQHNKRLQDFYNNKNSFQHYIKKLKTCRFDADDIRNLLEKRLAYERDNTLIKNIQEEENKKGIGINGNFGSESNSSSSNYDNNYLLYRKINRLNKTNTNKSKNRSRKRKRINSKIDKKYIIKCRACKFINPNGFKIEDYYTCQNCGYNDFSVIRSTSPNNAD | not soluble
MAHHHHHHMKMISFNVFRHVESPACCPPASFVADLSITSKKNTHKHLLSFFIFPLFLESLSVMLPTQKPVLFTPGPLMTSDTVKEAMLTDYASRDIRFVQAVKFIREELISVAGLDPQKWACILQQGSGSMGIEAAISTIFPRTGGKFLLINSGKYSEKQACVVKRLQFPMVMLKMGEGEELKMSALESIIRANPDITTVGFVHHETSTGMLYPAEQIAEVVRRELPKAKIIIDGISAFGGIPCDYEKACDVLVAAPNKCLHSVPGISIILARRLLIEAAKGCARSATLDLSMQLMSFDKSGQFAVTPPVHVVMALQQALVEYKRDGGLSGRQKTYQAKAQLVREAVKAMGFTLFLGESKPSCANVVVCVNMPRDPRWNFKRFYTYLNERGLIIYPGKASHAETFRFGIIGHTSLANCERLMKCAKEALKSMGIDHLQRKSNM | not soluble
MAHHHHHHMKSLENNEMHNLCPIHYYFNGRDYNSDTIINNVNIKYFNMDNCLGNANLHMDYLNPVLNHPTKIEHGKIKILILDAPTNDLLPLYIKEMKNYNVTDLVRTCERTYNDGEIQDAGINVHELIFPDGDAPTEDIVSNWLNIVNNVIKNNCAVAVHCVAGLGRAPVLASIVLIEFGMDPIDAIVFIRDRRKGAINKRQLQFLKEYRKKKKKKNCLRKCHFM | not soluble
MAHHHHHHMLAPTVTREACQPIINAFRCAAEKGQTQTDVDAESWGREVTRINAEAQKAWSEQRKPFIPAMYLRRRDPAAEEALRLLRVTSKAFELNLRFREIEKLDEMHAKLWALLSADKTRLTITIIEYMEILKKFKAWQEERFEGTPKASPQREASVQSSQECLDDTTPLGSVVYLASVMQPRPSLQLYLSCPRSPAGGVEVVHIYQRFAKQVSLVKCEAELIMWDTNNDGCLTEDEMESYVRDLVPRIEALRDITEDILPFYCCTVSRRIFWVLDPGSRGAIRIDMLLQNPVMDEWVSLQLMREDQPRNWFSAAITSHLYDKFLLLDTRNRGTLNADDMKRYKKGLPTVMDDGLPPGVGPLSSLFIDRFFETNVMMANSELDFRKFVDFVVAVEFLPSCQRPLFFWNILDIEGCGYLKPVHVNYFFRETHTKLVAAGLEVPSRETVVQEAFDLISTAEPLCISREEFINAPQAGLFVALLVDCLSFWTYENREQR | not soluble
MAHHHHHHMLHRIPAYRDPLLQVLSDALKRALDFYRREMSAGMSVEFECRLGTFSASKHTYAHPFPTHTLTPALLDGQSTTPFFFFAGVAQPSFIAAHETLKTIGASMPPRSSTVLSVRTVGKDRLEYAMNEACNSGHLLTIVEKERIFSHDVRCPGWGADFRVSVSREKTIDRETWNQAKWESFTPNISRLRQRKSVRIDPFLSVDMAMVRSFTDHSRFVRPWSPELQVPFISAPHVSFDVELEVNMPALHRVVKQTRLVESTLGRTALDLLTVLQFLAAKRE | not soluble
MAHHHHHHMLKVSSKEHYAEIKKKAEDSLGLVVHFSATWCEPCTAVNEHLTKQAAEYGDNVVFAEVDCGELGDVCEAEGVESVPFVAYFRTPLVGDDRRVERVADVAGAKFDQIDMNTHSLFGEKGGNRGSAEGLCHSGRLPALPHEAARGRNVHHRHPISSALRLYWSAV | not soluble
MAHHHHHHMLMFCRVPEDTAVRISLDVKKHFVNTERTSITQAELENYIRCSMIAAGFAQEHAQLFSVVTQFHAERIPLVLFLAGPERCGKTTLAHLLAARINCSTVINAEVLRDISASIDDSLPLFAVPETSSPDSTPSMLRGAEVSAVVAAEVDKAVREGRAIIVEGENLSFAGFHRFLEPSFQLSTGAVILGLVMEICGGEAETDASHAYVQALPNLHPVYSTERLTVLAADIGDLAKGVRGIPTVYVARYTTVADNVCLSVFLHDIVVKRIIAELKRRGRVL | not soluble
MAHHHHHHMLNVLCDIKRYNGFDYYKCPRTILKKTCNFVKRENVADSIFIGNEIEFFIFDKVNFGLDDYDSYLKVYDREAFSCKNGGSGGSAVGSGSHDTTAGVACIACAGHVPPNDDSKKVKKKCGYFATDPYDTSNMIKLRICRILNSLNVHVQKYHHEVSTSQHEISLKYFDAVKNADNLIITKQVIKSTVHNFNRTATFMPKPLVSDNGSGLHCNISLWKDNKNIFFADDPSTFFLSKEAFYFMNGIIKHAKALQAFCNSTMNSYKRLVPGFETCQKLFYSFGSRNAVIRLSMINYSNPSEKRIEFRLPDYANSPHLVLAAIILAGYDGIKSKEQPLVPFESKDNNFFISSIFSNYVENTQNFKTLTHALEGYDTIHDVKKSPEFVNFFTCKEPESICFSLEESLDALEKDHAFLTVDGIFTEVRFVGKCGEAPNTVDTYLPTYPCVLPFVLPICLPHLFSPFFPTAGSH | not soluble
